# Results reported in the RNAGym collection of RNA variant scans (doi:10.1073/pnas.2313332121).
# B1: TPR t1 (parent)
# chain: GACCAAUCUGCCCUCAGAGCUCGAGAACAUCUUCGGAUGCAGAGGAGGCAGGCUUCGGUGGCGCGAUAGCGCCAACGUCCUCAACCUCCAAUGCAUCCCACCACAUGAUGAUGCCUGAAGAGCCUUGGUUUUUUG
# Variants of: B1
# Assay: polymerase ribozyme fitness, log enrichment relative to wild type (log ratio); higher = more active; in vitro selection for triplet polymerase activity
# Method in brief: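 After PCR construction and transcription, each subunit's mutant library from a heterodimeric triplet polymerase ribozyme was annealed with a biotinylated primer, the partner subunit and triplets. Incubation was frozen, at −7 °C, and extended constructs were gel-excised, bound to streptavidin beads and amplified by RT-PCR, in one selection round done in triplicate. Fitness is the logarithm of a genotype's enrichment divided by that of the wild type, from inverse-variance-weighted replicate averages of Illumina-sequenced inputs and outputs. The base of the logarithm is 2, and genotypes needed ≥10 input reads and ≥1 read per output.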
row,Variant,polymerase ribozyme fitness (log ratio)
1,GACCAAUCUGCCCUCAGAGCUCGAGAACAUCUUGGGAUGCAGAGGAGGCAGGCUUCGGUGGCGCGAUAGCGCCAACGUCCUCAACCUCCAAUGCAUCCCACCACAUGAUGGUGCCUGAAGAGCCUUAGUUUUUUG [C34G A111G G127A],-5.87
2,GACCAAUCUGCCCUCAGAGCUCGAGAACAUCUUUGGAUGCAGAGGAGGCAGGUUUCGGUGGCGCGAUAGCGCCAACGUCCUCAACCUCCAAUGCAUCCCACCACAUGAGGAUGCCUGAUGCGCCUUGGUUUUUUG [C34U C53U U109G A119U A121C],-6.04
3,GACCAAUCUGCCCUCAGAGCUCGAGAACAUCUUGGGAUGCAGAGGAGGCAGGCUCCGAUGGCGCGAUAGCGCCAACGUCCUAAAUCUACAAUGCAUCCCACCACAUGAUGAUGCCUGAAGAGUCUUGGUUGUUUG [C34G U55C G58A C82A C85U C88A C123U U131G],-6.74
4,GACCAAUCUGCCCUCAGAGCUCGAGAACAUCUUUGGAUGCAGAGGAGGCAGGUUUCGGUGUCGCGAUAGCGCCAACGUCCUCAACCUCCAAUGCAUCCCACCACAUGAUGAUGCCUGAAAAGCCUUGGUUUAUUG [C34U C53U G61U G120A U132A],-3.26
5,GACCAAUCUGCCCUCAGAGCUCGAGAACAUCUUGGUAUGCAGAGGAGGCAGGCUUCGGUGGCGCGAUAGCGUCAACGUCCUCAACCUCCAAUGCACCCCACCACAUGAUGAUGCCUGAAGAGCCUUCGUGUUUUG [C34G G36U C72U U96C G127C U130G],-6.19
6,GACCAAUCUGCCCUCAGAGCUCGAGAACAUCUUUGGAUGCAGAGGAGGCAGGCUUAGGUGGCGCGAUAGCGCCAACGUCCUCAACCUCCAAUGCAUCCCACCACAUGAUGAUGCCUGAAGAGCCUUGGUUUUUUG [C34U C56A],-5.06
7,GACCAAUCUGCCCUCAGAGCUCGAGAACAUCUUGGGAUGCAGAGGAGGCAGGCUUCGGUGGCGCGAUAGCGCCAACGGCCUCAACCUCCAAUGCAUCCCACCACAUGAUGAUGCCUGAAGAGCCUUGGUUUUUUG [C34G U78G],-6.71
8,GACCAAUCUGCCCUCAGAGCUCGAGAACAUCUUGGGAUGCAGAGGAGGCAGGCUUCGGUGGCGCGAUAGCGACAACGUCCUCAACCUCCAAUGCAUCCCACCACAGGAUGAUGCCUGAUGAGCCUUGGUUUUUUG [C34G C72A U106G A119U],-7.42
9,GACCAAUCUGCCCUCAGAGCUCGAGAACAUCUUAGGAUGCAGAGGAGGCAGGCUUCGGUGGCGCGAUAGCGCCAACGUCCUCAACCUCCAAUGCAUCCCACCACAUGAUGAUGCCCGAAGAGCCUUGGUUUUUUG [C34A U116C],-5.3
10,GACCAAUCUGCCCUCAGAGCUCGAGAACAUCUUUGGAUGCAGAGGAGGCAGGCUUCGGUGGCGCGAUAGCGCCAACGUCCUCAACCUCCAAUGCCUCCCACCACAUGAUGAUGCCUGAAGAGCCUUGGUUUUUUG [C34U A95C],-5
11,GACCAAUCUGCCCUCAGAGCUCGAGAACAUCUUAGGAUGCAGAGGAGGCAGGCAUCGGUGGCGCGAUAGCGCCAACGUCCUCAACCUCCAAUGCAUCCCACCACAUGAUGAUGCCUGAAGAGCCUUGGUUUUUUG [C34A U54A],-1.22
12,GACCAAUCUGCCCUCAGAGCUCGAGAACAUCUUUGGCUGCAGAGGAGGCAGGCUUCGGUCGCGCGAUAGCGCCAACGUCCUCAACCUCCAAUGCAUCCCACCACAUGAUGAUGCCUGAAGAGCAUUGGUUUUUUG [C34U A37C G60C C124A],-3.79
13,GACCAAUCUGCCCUCAGAGCUCGAGAACAUCUUAGGAUGCAGAGGAGGCAGGCUUCGGAGGCGCGAUAGCGCCAACGUCCUCAACCUCCAAUGCAUCCCACCACAUGAUGAUGCUUGUAGAGCCUUGGUUUUUUG [C34A U59A C115U A118U],-6.82
14,GACCAAUCUGCCCUCAGAGCUCGAGAACAUCUUUGGAUGCGGAGGAGGCAGGUUUCGGUGGCGCGAUAUCGCCAACGUCCUCAACCUCCAAUGCAUCCCACCACAUGAUGAUGCCUGAAGAGCCUUGGUUUUUUG [C34U A41G C53U G69U],-2.44
15,GACCAAUCUGCCCUCAGAGCUCGAGAACAUCUUGGGAUGCAGAGGAGGCAGGCUUCGGUGGCACGAUAGCGCCAACGUCCUCAACCUCCAAUGCAUCCCACCACAUGAUGAUGCCUGAAGAGCCUUGGUUUUUUG [C34G G63A],-7.1
16,GACCAAUCUGCCCUCAGAGCUCGAGAACAUCUUGGGAUGCAGAGGAGGCAGGCUUCGGUGGCUCGAUAGCGCCAACGUCCUCAACCUCCAAUGCAUCCCACCACAUGAUGAUGCCUGAAGAGCCUUGGUUUUUUG [C34G G63U],-8.24
17,GACCAAUCUGCCCUCAGAGCUCGAGAACAUCUUAGGAUGCAGAGGAGGCAGGCUUCGGUGGCGCGAUAGCGCCAACGUCCUCAACCUCCAAUGCAUCCCACCACAUGAUGAUGCCUGAAGAGCCUUGCUUUUUUG [C34A G128C],-4.73
18,GACCAAUCUGCCCUCAGAGCUCGAGAACAUCUUGGGAUGCAGAGGAGGCAGGCUUCGGUGGCUCGAUAGCGUCAACGUCCUCAACCUCCAAUGCAUCCCACCACAUGAUUAUGCCUGAAGAGCCUUGGUUUUUUG [C34G G63U C72U G110U],-8.01
19,GACCAAUCUGCCCUCAGAGCUCGAGAACAUCUUAGGAUGCAGAGGAGGCAGGCUUCGGUGGCGCGAUAGCGCCAACGUCCUCAACCUCCAAUACAUCCCAUCACAUGAUGAUGCCUGAAGAGCCUUGGUUUUUUG [C34A G93A C101U],-3.81
20,GACCAAUCUGCCCUCAGAGCUCGAGAACAUCUUAGGAUGCAGAGGAGGCAGGCUUCGGUGUCGCGAUAGCGCCAACGUCCUCAACCUCCAAUGCAUCCCACCACAUGAUGGUGCCUGAAGAGCCUUGGUUUUUUG [C34A G61U A111G],-2.85
21,GACCAAUCUGCCCUCAGAGCUCGAGAACAUCUUGGGAUGCAGAGGAGGCAUGAUUCGGUGGCGCGAUAUCGCCAACGUCCUCAACCUCCAAUGCAUCCCACCACAUGAUGAUGCCUGAAUAGCCUUGGUUUUUUG [C34G G51U C53A G69U G120U],-7.39
